Source: the supplement of paper PMC7877785
± gives the uncertainty stated by the source.

Experiment: self-splicing fitness, log relative to wild type (ln ratio); higher = more splicing; Tetrahymena group I intron in knt gene, E. coli kanamycin selection, DiMSum; sequences stand for … in CUCUCU…GGAGGGAAAAGUUAUCAGGCAUGCACCUGGUAGCUAGUCUUUAAACCAAUAGAUUGCAUCGGUUUAAAAGGCAAGACCGUCAAAUUGCGGGAAAGGGGUCAACAGCCGUUCAGUACCAAGUCUCAGGGGAAACUUUGAGAUGGCCUUGCAAAGGGUAUGGUAAUAAGCUGACGGACAUGGUCCUAACCACGCAGCCAAGUCCUAAGUCAACAGAUCUUCUGUUGAUAUGGAUGCAGUUCACAGACUAAAUGUCGGUCGGGGAAGAUGUAUUCUUCUCAUAAGAUAUAGUCGGACCUCUCCUUAAUGGGAGCUAGCGGAUGAAGUGAUGCAACACUGGAGCCGCUGGGAACUAAUUUGUAUGCGAAAGUAUAUUGAUUAGUUUUGGAGUACUCGUGGUCG
Procedure, shortened: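 Fitness was computed with DiMSum as the error-weighted combination of replicate fold changes, kanamycin versus none, each normalised to wild type. The library randomised all eight intron nucleotides of the P1ex region, with the intron placed in the knt kanamycin-resistance gene on pET-22b(+) in E. coli BL21(DE3). Six replicate transformations were grown overnight at 37°C or 30°C on LB agar with or without 25 μg/mL kanamycin, plus 100 μg/mL carbenicillin, 50 μM IPTG and 0.2% rhamnose. Pooled colonies were amplicon-sequenced on an Illumina HiSeq 2500.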

Sequence | self-splicing fitness (ln) (30 °C) | self-splicing fitness (ln) (37 °C)
UGUUAGCAAUAUUACGGCUC | -2.55 ± 0.22 | 0.0795 ± 0.15
UGUUAGCAAUAUUACGGGAG | -3.62 ± 0.25 | -3.42 ± 0.25
UGUUAGCAAUAUUACGGGGA | -2.84 ± 0.22 | -2.2 ± 0.19
UGUUAGCAAUAUUACGGUCC | -2.6 ± 0.38 | –
UGUUAGCAAUAUUACGUCAC | -3.58 ± 0.33 | -2.64 ± 0.38
UGUUAGCAAUAUUACGUCAG | -1.61 ± 0.15 | -0.486 ± 0.2
UGUUAGCAAUAUUACGUUCG | 0.135 ± 0.16 | 0.292 ± 0.16
UGUUAGCAAUAUUACGUUUA | -1.78 ± 0.09 | -0.902 ± 0.098
UUAAAGCAAUAUUACGACUG | -0.0352 ± 0.08 | 0.184 ± 0.12
UUAAAGCAAUAUUACGAGGU | -4.09 ± 0.24 | -3.3 ± 0.27
UUAAAGCAAUAUUACGCAAG | -0.46 ± 0.1 | 0.145 ± 0.14
UUAAAGCAAUAUUACGCGGU | -3.37 ± 0.18 | -0.344 ± 0.13
UUAAAGCAAUAUUACGCGUU | -2.44 ± 0.12 | -1.49 ± 0.13
UUAAAGCAAUAUUACGGACA | -0.00448 ± 0.072 | 0.068 ± 0.11
UUAAAGCAAUAUUACGGAUU | -2.69 ± 0.1 | -1.74 ± 0.14
UUAAAGCAAUAUUACGGCAC | -1.19 ± 0.1 | -0.195 ± 0.13
UUAAAGCAAUAUUACGGCCA | -0.086 ± 0.13 | -0.188 ± 0.17
UUAAAGCAAUAUUACGGCGC | -0.589 ± 0.11 | 0.34 ± 0.17
UUAAAGCAAUAUUACGGGAC | -3.27 ± 0.24 | -2.24 ± 0.28
UUAAAGCAAUAUUACGGGCC | -1.7 ± 0.21 | -1.25 ± 0.28
UUAAAGCAAUAUUACGGGCG | 0.077 ± 0.081 | -0.11 ± 0.1
UUAAAGCAAUAUUACGGUAU | -2.14 ± 0.086 | -1.22 ± 0.11
UUAAAGCAAUAUUACGGUGA | -0.488 ± 0.097 | 0.559 ± 0.13
UUAAAGCAAUAUUACGUAGG | -1.29 ± 0.11 | 0.067 ± 0.13
UUAAAGCAAUAUUACGUCAC | -2.97 ± 0.16 | -1.76 ± 0.22

Sequence | self-splicing fitness (ln) (30 °C) | self-splicing fitness (ln) (37 °C)
UUAAAGCAAUAUUACGUCCG | -0.581 ± 0.12 | 0.242 ± 0.15
UUAAAGCAAUAUUACGUCCU | -0.682 ± 0.081 | -0.281 ± 0.096
UUAAAGCAAUAUUACGUGCU | -1.16 ± 0.082 | -0.057 ± 0.12
UUAAAGCAAUAUUACGUGUU | -3 ± 0.13 | -1.96 ± 0.16
UUAAAGCAAUAUUACGUUGG | -1.12 ± 0.094 | -0.746 ± 0.1
UUACAGCAAUAUUACGAUUC | -2.03 ± 0.092 | -0.667 ± 0.097
UUACAGCAAUAUUACGCACA | -0.783 ± 0.12 | 0.168 ± 0.12
UUACAGCAAUAUUACGCAUA | -1.34 ± 0.091 | -0.527 ± 0.1
UUACAGCAAUAUUACGCAUG | -1.18 ± 0.069 | -0.0513 ± 0.087
UUACAGCAAUAUUACGCCCG | -0.115 ± 0.18 | 0.245 ± 0.25
UUACAGCAAUAUUACGCCCU | -2.55 ± 0.24 | -0.401 ± 0.26
UUACAGCAAUAUUACGCCGA | -1.29 ± 0.2 | -0.354 ± 0.22
UUACAGCAAUAUUACGCCGU | – | -2.05 ± 0.31
UUACAGCAAUAUUACGCGAC | -2.37 ± 0.17 | -1.41 ± 0.18
UUACAGCAAUAUUACGCGCU | -2.93 ± 0.37 | -2.04 ± 0.31
UUACAGCAAUAUUACGCGUA | -3.07 ± 0.2 | -1.94 ± 0.16
UUACAGCAAUAUUACGCGUC | -3.64 ± 0.2 | -1.32 ± 0.19
UUACAGCAAUAUUACGCGUU | -3.05 ± 0.14 | -1.95 ± 0.15
UUACAGCAAUAUUACGCUGG | -4.24 ± 0.32 | -2.08 ± 0.23
UUACAGCAAUAUUACGGCCC | -0.167 ± 0.33 | –
UUACAGCAAUAUUACGGCGA | -0.0852 ± 0.081 | 0.489 ± 0.11
UUACAGCAAUAUUACGGGCG | -0.655 ± 0.051 | 0.0547 ± 0.066
UUACAGCAAUAUUACGGUAC | -3.98 ± 0.22 | -2.26 ± 0.14
UUACAGCAAUAUUACGGUAG | -1.92 ± 0.12 | -0.729 ± 0.13
UUACAGCAAUAUUACGUAAA | -1.59 ± 0.13 | -0.34 ± 0.12

Sequence | self-splicing fitness (ln) (30 °C) | self-splicing fitness (ln) (37 °C)
UUACAGCAAUAUUACGUACG | -0.291 ± 0.075 | 0.0876 ± 0.1
UUACAGCAAUAUUACGUAUU | -2.89 ± 0.14 | -1.55 ± 0.12
UUACAGCAAUAUUACGUUAU | -1.91 ± 0.087 | -1.98 ± 0.14
UUAGAGCAAUAUUACGAACU | – | -1.92 ± 0.43
UUAGAGCAAUAUUACGACCU | -3.64 ± 0.41 | -1.49 ± 0.43
UUAGAGCAAUAUUACGAGAA | -1.75 ± 0.17 | -0.981 ± 0.21
UUAGAGCAAUAUUACGAGCC | -0.789 ± 0.47 | –
UUAGAGCAAUAUUACGAGUG | -3.12 ± 0.16 | -1.53 ± 0.13
UUAGAGCAAUAUUACGAUGU | -2.59 ± 0.41 | -2.43 ± 0.41
UUAGAGCAAUAUUACGCCUU | -2.34 ± 0.13 | -1.08 ± 0.16
UUAGAGCAAUAUUACGCGAA | -0.809 ± 0.14 | -0.155 ± 0.18
UUAGAGCAAUAUUACGCGUC | -2.56 ± 0.29 | –
UUAGAGCAAUAUUACGGAAC | -4.11 ± 0.39 | -2.33 ± 0.37
UUAGAGCAAUAUUACGGAUU | -3.74 ± 0.28 | -2.48 ± 0.27
UUAGAGCAAUAUUACGGCGG | -0.922 ± 0.14 | 0.0643 ± 0.2
UUAGAGCAAUAUUACGGGAC | -3.75 ± 0.36 | -2.8 ± 0.22
UUAGAGCAAUAUUACGUGCU | – | -1.79 ± 0.4
UUAGAGCAAUAUUACGUGGU | -3.98 ± 0.43 | -2.61 ± 0.39
UUAGAGCAAUAUUACGUUGU | -4.16 ± 0.31 | -2.4 ± 0.19
UUAUAGCAAUAUUACGAAGA | – | -1.99 ± 0.32
UUAUAGCAAUAUUACGACCA | -0.882 ± 0.2 | -0.384 ± 0.21
UUAUAGCAAUAUUACGAGCU | – | -2.16 ± 0.26
UUAUAGCAAUAUUACGAUGG | -1.24 ± 0.1 | -0.128 ± 0.14
UUAUAGCAAUAUUACGCAGC | -3.44 ± 0.31 | -2.49 ± 0.45
UUAUAGCAAUAUUACGCAGG | -1.06 ± 0.13 | -0.791 ± 0.16

Sequence | self-splicing fitness (ln) (30 °C) | self-splicing fitness (ln) (37 °C)
UUAUAGCAAUAUUACGCCGG | -0.862 ± 0.19 | -0.599 ± 0.32
UUAUAGCAAUAUUACGCCUG | -0.833 ± 0.4 | -0.933 ± 0.37
UUAUAGCAAUAUUACGCGCG | 0.0634 ± 0.16 | -0.475 ± 0.18
UUAUAGCAAUAUUACGCGUC | – | -1.11 ± 0.41
UUAUAGCAAUAUUACGCUGU | -3.59 ± 0.37 | -1.06 ± 0.37
UUAUAGCAAUAUUACGCUUA | -1.92 ± 0.33 | -1.09 ± 0.26
UUAUAGCAAUAUUACGCUUU | -2.99 ± 0.28 | -2.6 ± 0.26
UUAUAGCAAUAUUACGGACA | -1.66 ± 0.14 | -0.61 ± 0.12
UUAUAGCAAUAUUACGGAUC | -3.02 ± 0.45 | –
UUAUAGCAAUAUUACGGCAU | -2.47 ± 0.18 | -2.3 ± 0.25
UUAUAGCAAUAUUACGGCGA | -1.38 ± 0.14 | -0.219 ± 0.18
UUAUAGCAAUAUUACGGGCA | -2.37 ± 0.18 | -1.32 ± 0.19
UUAUAGCAAUAUUACGGUAC | -2.88 ± 0.28 | -2.45 ± 0.41
UUAUAGCAAUAUUACGGUAG | -1.38 ± 0.14 | -0.483 ± 0.14
UUAUAGCAAUAUUACGGUCC | -2.8 ± 0.21 | -2.93 ± 0.29
UUAUAGCAAUAUUACGUCAA | -1.61 ± 0.26 | -0.961 ± 0.22
UUAUAGCAAUAUUACGUGUA | -2.46 ± 0.18 | -1.73 ± 0.16
UUAUAGCAAUAUUACGUGUG | -1.63 ± 0.083 | -0.419 ± 0.098
UUCAAGCAAUAUUACGAACG | -4.29 ± 0.36 | -2.46 ± 0.25
UUCAAGCAAUAUUACGAAGG | -4.7 ± 0.41 | -2.95 ± 0.26
UUCAAGCAAUAUUACGAAGU | -3.76 ± 0.37 | -0.849 ± 0.23
UUCAAGCAAUAUUACGACGU | -0.831 ± 0.094 | 0.325 ± 0.13
UUCAAGCAAUAUUACGACUU | -3.86 ± 0.15 | -2.65 ± 0.18
